The results in this text go back to patent US20260176306A1.

Assay [1] addresses H7 hemagglutinin of A/Shanghai/4664T/2013 H7N9 on pseudo virus (Influenza A virus A/Shanghai/4664T/2013 H7N9). The assay can be described thus: cell-based or functional assay.
Assay [2] has as its target H7 hemagglutinin of A/Hong Kong/125/2017 H7N9 on pseudo virus (Influenza A virus A/Hong Kong/125/2017 H7N9). The assay can be described thus: cell-based or functional assay.

B1: H7.HK4 (antibody, V domains shown)
VH: QVQLQESGPGLVKPSETLSLTCTVSGGSVRSASYAWSWIRQPPGKGLEWIGDIYYSGTTNYNPSLKSRVTLSVDTAKNRFSLRLRSVTAADTAVYHCARERYYYGSSGDFDYWGQGTLVTVSS
VL: DIQMTQSPSSLSASVGDRVTITCRASQGIRNYLAWFQQKPGQAPKSLIFAASSLHTGVPSRFSGSGSGTDFTLTISSLQPEDFATYYCQHYNSYPPTFGQGTKLEIK
B1: the neutralization, H7N9 2013 pseudo virus, MDCK cells, luciferase in assay [1] is above 10 µg/mL.

B2: H7.HK2 (antibody, V domains shown)
VH: QVQLQGSGPGLLRPSETLSLTCSVSGVSINSYYWSWVRQPPGKALEWIGYIYYSGNTNYNPSLESRVTISVDRSKNQFSLKMTSVTAADTARYFCARQGIFGDYGSDYWGPGTLVTVSS
VL: DIVMTQSPLSLPVTPGEPASISCRSNQSLQHSNGYVHLDWYRQKPGQSPHLLIYLGFNRASGVPDRFSGGGSGTDFTLKISRVEAEDVGVYYCMQGLQTPFTFGPGTTVDLK
Turning to B2, the neutralization IC50, H7N9 2017 pseudo virus, MDCK cells, luciferase in assay [2] amounted to 0.03 mg/L.

B3: H7.HK1 (antibody, V domains shown)
VH: QVQLQESGPGLVKPSETLSLTCSVSGGSINSYYWTWIRQPPGKGLEWVGYIYHSGSTSYNPSLKSRITISVAPSKNHFSLELTSMTAADTAVYYCARLGGHGDYGSDYWGQGTLVTVSS
VL: DIVMTQSPVSLPVTPGEPASISCNSSQSLLHSNGYAHLDWYLQKPGQSPKLMIYLGLNRAFGVPDRFSGSGSGTDFTLKISRVEAEDVGVYYCMQALQTPFTFGPGTRVDIK
As to B3, in assay [2], the neutralization IC50, H7N9 2017 pseudo virus, MDCK cells, luciferase is 0.03 mg/L.
